# T1: 4F2hc (CD98hc, SLC3A2), isoform b (human, UniProt P08195-5 1-631)
# T1 construct: Purified as a complex with m1 (LAT1); also called heavy chain; source: HEK293F, coexpressed with LAT1, purified (anti-FLAG resin, nickel-NTA, size-exclusion chromatography in GDN)
# T1 sequence (looked up): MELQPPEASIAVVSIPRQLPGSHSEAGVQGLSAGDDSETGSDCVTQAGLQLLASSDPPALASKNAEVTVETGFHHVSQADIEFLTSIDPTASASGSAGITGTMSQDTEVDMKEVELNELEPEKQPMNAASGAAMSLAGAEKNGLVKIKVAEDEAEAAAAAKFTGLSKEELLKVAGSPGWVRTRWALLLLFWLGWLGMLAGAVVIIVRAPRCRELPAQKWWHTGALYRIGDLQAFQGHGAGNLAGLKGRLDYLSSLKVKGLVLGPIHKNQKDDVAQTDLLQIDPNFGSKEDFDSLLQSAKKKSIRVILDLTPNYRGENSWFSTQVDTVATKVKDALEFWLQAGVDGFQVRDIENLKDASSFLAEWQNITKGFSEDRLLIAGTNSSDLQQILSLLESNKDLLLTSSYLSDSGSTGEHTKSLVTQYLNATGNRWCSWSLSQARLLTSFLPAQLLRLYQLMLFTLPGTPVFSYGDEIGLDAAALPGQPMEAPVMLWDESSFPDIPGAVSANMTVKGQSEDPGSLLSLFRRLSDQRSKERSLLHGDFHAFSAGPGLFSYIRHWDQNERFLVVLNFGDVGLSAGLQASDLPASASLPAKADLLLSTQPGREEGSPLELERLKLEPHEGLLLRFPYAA
# B1: L-type amino acid transporter 1 (LAT1, SLC7A5) (natural protein)
# chain: not shown
# notes: LAT1 (SLC7A5), human, full-length cDNA NM_003486.7 in pCAG vector; Purified as a complex with m2 (4F2hc); also called light chain; source: HEK293F, coexpressed with 4F2hc, purified (anti-FLAG resin, nickel-NTA, size-exclusion chromatography in GDN)
# Target: T1, 4F2hc (CD98hc, SLC3A2), isoform b
# Test: cryo-EM structure; LAT1-4F2hc coexpressed and purified as a complex in 25 mM Hepes pH 7.5, 150 mM NaCl, 0.01% GDN; incubated with 10 mM Leu, 1 mM Trp, 1 mM L-DOPA or 1 mM Tyr for 2 h; four structures
# Settings: both partners purified
binder,measurement,value
B1,binding result,binds
